In test [1] the target is T1, Cx43 hemichannels in human synovial fibroblast SW982 cells (Homo sapiens, UniProt P17302).
T1 construct: endogenous in cells; host or cells: SW982 (human synovial fibroblast), IL1β-treated
Description: EtBr dye uptake assay in IL1β-treated SW982 cells. In kind it is cell-based. On the procedure:
(§1) Dye uptake assay. Cells were incubated with a mixture of 0.1 mM ethidium bromide (EtBr, MW 394 Da) and 1 mg/ml FITC-dextran (MW 10 kDa) for 5 minutes. EtBr was used as a tracer to detect hemichannel activity, and FITC-dextran, which is too large to pass through hemichannels but is taken up by dying cells, was used as a negative control. Cells were then rinsed five times with PBS, followed by fixing with 2% paraformaldehyde for 10 minutes. At least six microphotographs of fluorescence fields were captured under a 20× fluorescent microscope (Keyence, BZ-X710, Osaka, Japan). For each image, the average intensity of EtBr fluorescence was measured and quantified from at least 30 random cells using ImageJ software (NIH, Bethesda, USA). […]
(§2) Anti-Cx43 hemichannel antibody (M1 antibody) blocked Cx43 hemichannel opening and inflammatory gene expression in RAW264.7 and SW982 cells. […] The activity of Cx43 hemichannels was determined using EtBr dye uptake assay. […] Next, MMP3/13, Cyclooxygenase 2 (COX2), ADAM metallopeptidase with thrombospondin type 1 motif 4 (Adamts4), and IL6 gene expression was determined with or without Cx43E2 antibody after LPS treatment of RAW264.7 cells (FIG. 18). […] In addition, MMP3/13, COX2, Adamts4/5, and Nitric Oxide Synthase 2 (NOS2) gene expression was evaluated in IL1β-treated SW982 cells (FIG. 19).

The target in test [2] is T2, Cx43 hemichannels in mouse macrophage RAW264.7 cells (Mus musculus, UniProt P23242).
T2 construct: endogenous in cells; host or cells: RAW264.7 (mouse macrophage), LPS-treated
Briefly: EtBr dye uptake assay in LPS-treated RAW264.7 cells. The class given is cell-based. The procedure: as §1, §2

Test [3] concerns the target T3, Connexin 43 (Cx43) hemichannel, mouse (mouse, UniProt P23242 2-382).
T3 construct: whole, on cells; also called Cx43 HCs
Briefly: in vivo binding after i.p. injection; frozen knee sections stained with Alexa Fluor 594 anti-human IgG. On the procedure:
M1 antibody binds to synovium and inhibits hemichannel opening in OA. Due to the dense nature of cartilage and large size of antibodies, a widely held perception is that antibodies are unable to penetrate the cartilage matrix. To determine the antibody binding pattern in the knee joint region, M1 antibody (25 mg/kg) with human IgG epitope or saline was intraperitoneally (i.p.) injected at 30 mins after DMM surgery. As shown in the diagram (FIG. 8A), mice were euthanized and perfused before isolation of hindlimbs at one or two weeks after injection. Frozen tissue sections were prepared and immuno-labeled with Alexa Fluor 594-conjugated anti-human IgG secondary antibody. The signal was detectable at both one and two weeks after antibody administration, with the antibody binding site primarily localized in the synovium region (FIG. 8B). The synovium of joints comprises macrophage-like type A cells, which are responsible for phagocytosing synovial fluid, and fibroblast-like type B cells, which produce hyaluronic acid and mucin to nourish and mechanically protect, respectively, the underlying articular cartilage (Donahue H J, et al. Nature reviews Rheumatology. 2017; 14(1):42-51). Then the sections were immuno-labeled with the macrophage marker CD68, and the M1 antibody was co-localized with CD68 in the synovium region (FIG. 9). […]

The subject of test [4] is IL1β-induced inflammatory gene expression in SW982 cells. Description: qRT-PCR of IL1β-induced inflammatory gene expression in SW982 cells. The class given is cell-based, human. The note with it: pre-incubated 30 min, 1 ng/ml IL1β for 14 hrs. On the procedure: Human synovial fibroblast SW982 cells were pre-incubated with or without the Cx43E2 antibody for 30 min followed by incubation with 1 ng/ml IL1β for 14 hrs. RNA extracts were prepared and subjected to qRT-PCR analysis for COX2, Adamts4/5, MMP3/13 and NOS2 mRNA expression. *P<0.05, **P<0.01.
(§3) RNA isolation and real-time PCR. Total RNA was isolated from RAW264.7 and SW982 cells using TRI Reagent (Molecular Research Center, Cincinnati, USA) according to the manufacturer's instructions. After RNA quantification by Nanodrop 2000, cDNA was synthesized from 1 μg of total RNA using the high-capacity RNA-to-cDNA kit (Thermo Fisher Scientific, Waltham, USA). […]
as §2
On the technique in general: Quantitative PCR measures a nucleic acid by following its amplification.

The subject of test [5] is LPS-induced inflammatory gene expression in RAW264.7 cells. Briefly: qRT-PCR of LPS-induced inflammatory gene expression in RAW264.7 cells. In kind it is cell-based, mouse. The note with it: pre-incubated 30 min, 0.1 μg/ml LPS for 4 hrs. The procedure:
Mouse macrophage RAW264.7 cells were pre-incubated with or without the Cx43E2 antibody for 30 min followed by incubation with 0.1 μg/ml LPS for 4 hrs. RNA extracts were prepared and subjected to qRT-PCR analysis for COX2, Adamts4, MMP3/13 and IL6 mRNA expression. *P<0.05, **P<0.01.
as §3, §2

T2 sequence (P23242 whole entry): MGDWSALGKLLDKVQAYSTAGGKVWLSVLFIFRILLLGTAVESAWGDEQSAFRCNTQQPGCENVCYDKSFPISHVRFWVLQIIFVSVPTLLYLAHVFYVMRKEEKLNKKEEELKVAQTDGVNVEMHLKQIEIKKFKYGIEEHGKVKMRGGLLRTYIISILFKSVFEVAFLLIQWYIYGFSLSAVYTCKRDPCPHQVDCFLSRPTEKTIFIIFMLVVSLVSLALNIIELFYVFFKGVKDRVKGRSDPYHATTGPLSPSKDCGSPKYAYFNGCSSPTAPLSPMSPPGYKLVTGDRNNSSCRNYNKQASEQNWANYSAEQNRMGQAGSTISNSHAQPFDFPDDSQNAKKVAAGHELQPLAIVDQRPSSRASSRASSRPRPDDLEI
T1 sequence (P17302 whole entry): as the sequence (P23242 whole entry) above, with E124D, V164I, R243K, T251S, P253A, S257A, P263Q, S341N, A344S, V347L counted along it
T3 sequence (P23242 2-382): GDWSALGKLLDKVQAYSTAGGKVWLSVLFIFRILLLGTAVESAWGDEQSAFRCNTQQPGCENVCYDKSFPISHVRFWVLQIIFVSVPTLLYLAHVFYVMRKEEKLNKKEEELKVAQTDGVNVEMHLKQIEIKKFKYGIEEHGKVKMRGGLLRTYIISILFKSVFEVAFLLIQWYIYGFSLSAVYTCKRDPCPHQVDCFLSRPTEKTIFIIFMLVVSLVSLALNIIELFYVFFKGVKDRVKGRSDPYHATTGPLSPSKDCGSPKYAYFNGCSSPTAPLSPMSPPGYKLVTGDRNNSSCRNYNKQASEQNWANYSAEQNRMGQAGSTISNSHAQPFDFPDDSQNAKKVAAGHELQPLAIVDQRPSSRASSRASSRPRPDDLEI

For the molecule `CC1(C)[C@@H](OC(=O)CCC(=O)O)CC[C@]2(C)[C@H]3C(=O)C=C4[C@@H]5C[C@@](C)(C(=O)O)CC[C@]5(C)CC[C@@]4(C)[C@]3(C)CC[C@@H]12` [carbenoxolone, reference compound], the “IL1β-induced increase of Cx43 hemichannel opening (EtBr dye uptake)” value in test [1] (CBX 100 μM) is reported as “abolished”. Moreover, the “LPS-induced increase of Cx43 hemichannel opening (EtBr dye uptake)” value in test [2] (CBX 100 μM) was “abolished”.

B1: M1 antibody (anti-Cx43 hemichannel blocking antibody) (antibody, V domains shown)
VH: EVQLQQPGAELVKPGASVKLSCKASGYTFTSYYMYWVKQRPGQGLEWIGGINPSNGGTNFNEKFKNKATLTVDKSSSTAYMQLSSLTSEDSAVYYCTREGNPYYTMNYWGQGTSVTVSS
VL: DIVMTQSPSSLSVSAGEKVTMSCKSSQSLLNSGNQKTYLAWYQQKPGQPPKLLIYGASTRESGVPDRFTGSGSGTDFTLTISSVQAEDLAVYYCQNDHSYPFTFGSGTKLEIK
notes: also called HmAb1; anti-Cx43 hemichannel antibody
As to B1, the binding result in test [3] is given as “binds”.

B2: Cx43E2 blocking antibody: Cx43 hemichannel blocking antibody used in RAW264.7 and SW982 cells; headings and legends call it anti-Cx43 hemichannel antibody (M1 antibody) (antibody, V domains shown)
VH: EVQLQQPGAELVKPGASVKLSCKASGYTFTSYYMYWVKQRPGQGLEWIGGINPSNGGTNFNEKFKNKATLTVDKSSSTAYMQLSSLTSEDSAVYYCTREGNPYYTMNYWGQGTSVTVSS
VL: DIVMTQSPSSLSVSAGEKVTMSCKSSQSLLNSGNQKTYLAWYQQKPGQPPKLLIYGASTRESGVPDRFTGSGSGTDFTLTISSVQAEDLAVYYCQNDHSYPFTFGSGTKLEIK
For the molecule B2, the “IL1β-induced increase of Cx43 hemichannel opening (EtBr dye uptake)” value in test [1] (antibody 2 μg/ml) was “abolished”. In addition, the “LPS-induced increase of Cx43 hemichannel opening (EtBr dye uptake)” value in test [2] (antibody 2 μg/ml) is recorded as “abolished”. The “MMP3/13, COX2, Adamts4/5 and NOS2 gene expression after IL1β treatment” value in test [4] was “significantly reduced”. Moreover, the “LPS-induced up-regulation of MMP3/13, COX2, Adamts4 and IL6 gene expression” value in test [5] is “markedly decreased”.

These data come from patent US20240076371A1, “COMPOSITIONS AND METHODS FOR TREATING OSTEOARTHRITIS, RHEUMATOID ARTHRITIS, AND JOINT AND TENDON DISORDERS” (BOARD OF REGENTS, THE UNIVERSITY OF TEXAS SYSTEM, priority 2021, published 2024).
